Measurements reported in patent US20140294863A1, “SERUM ALBUMIN BINDING PEPTIDES FOR TUMOR TARGETING” (GENENTECH, INC., priority 2002, published 2014).
Bridges are numbered along the chain shown (N, C = ends). Where no end group is shown, it is not given here.

What was measured:
[1] = target: T1, rat albumin (Rattus norvegicus, UniProt P02770); conditions: FIG. 3
[2] = target: T2, rabbit albumin (Oryctolagus cuniculus, UniProt P49065); conditions: FIG. 3
[3] = in vivo; cited from earlier work
[4] = in vivo; cited from earlier work; remark: listed apart in the source
[5] = in vivo; cited from earlier work; remark: listed apart in the source
[6] = in vivo; cited from earlier work; remark: listed apart in the source
[7] = tested on: TF and albumin; experiment: biotin-TF binding assay (fusion on immobilized albumin detected with biotinylated TF); conditions: FIG. 8
Text: Purified D3H44 fusions retained their ability to bind TF as measured using a FX activation assay (FIG. 5), and a prothrombin time assay that measures prolongation of tissue factor dependent clotting (FIG. 6). The assay methods are described, for example, in Dennis et al., 2000, Nature 404: 465. […] Further, each of the albumin-binding fusions bound TF and albumin simultaneously. […] In this assay, binding of the D3H44 fusions to immobilized albumin was detected with biotinylated TF.

[8] = Pharmacokinetics of D3H44 variants in rabbits (TF binding ELISA); type: in vivo, rabbit; set-up: V1 Avg (Historical): unit not given here
Protocol: D3H44 variants were administered to rabbits as a 0.5 mg/kg bolus injection into the marginal ear vein. Each test group consisted of 3 rabbits (5 rabbits were used in the F(ab′)2 group). Serum samples were taken at the indicated time points, serially diluted, and the concentration of D3H44 was determined using a TF binding ELISA.
Pharmacokinetic analysis was performed using the test article plasma concentrations. Group mean plasma data for each test article conforms to a multi-exponential profile when plotted against the time post-dosing. The data were fit by a standard two-compartment model with bolus input and first-order rate constants for distribution and elimination phases. The general equation for the best fit of the data for i.v. administration was: c(t)=Ae^−αt+[…], where c(t) is the plasma concentration at time t, A and B are intercepts on the Y-axis, and α and β are the apparent first-order rate constants for the distribution and elimination phases, respectively. The α-phase is the initial phase of the clearance and reflects distribution of the protein into all extracellular fluid of the animal, whereas the second or β-phase portion of the decay curve represents true plasma clearance. Methods for fitting such equations are well known in the art. For example, A=D/V(α−k21)/(α−β), B=D/V (β−k21)/(α−β), and α and β (for α>β) are roots of the quadratic equation: r^2+(k12+k21+k10)r+k21k10=0 using estimated parameters of V=volume of distribution, k10=elimination rate, k12=transfer rate from compartment 1 to compartment 2 and k21=transfer rate from compartment 2 to compartment 1, and D=the administered dose.
Data analysis: Graphs of concentration versus time profiles were made using KaleidaGraph (KaleidaGraph™ V. 3.09 Copyright 1986-1997. Synergy Software. Reading, Pa.). Values reported as less than reportable (LTR) were not included in the PK analysis and are not represented graphically. Pharmacokinetic parameters were determined by compartmental analysis using WinNonlin software (WinNonlin® Professional V. 3.1 WinNonlin™ Copyright 1998-1999. Pharsight Corporation. Mountain View, Calif.). Pharmacokinetic parameters were computed as described in Ritschel W A and Kearns G L, 1999, IN: Handbook Of Basic Pharmacokinetics Including Clinical Applications, 5th edition, American Pharmaceutical Assoc., Washington, D.C.

[9] = target: T3, mouse albumin (Mus musculus, UniProt P07724); experiment: Direct Binding ELISA, AB.Fab variants on immobilized mouse albumin; conditions: average and SD of at least 3 determinations
T3 construct: purchased Sigma
T3 sequence (P07724 25-608): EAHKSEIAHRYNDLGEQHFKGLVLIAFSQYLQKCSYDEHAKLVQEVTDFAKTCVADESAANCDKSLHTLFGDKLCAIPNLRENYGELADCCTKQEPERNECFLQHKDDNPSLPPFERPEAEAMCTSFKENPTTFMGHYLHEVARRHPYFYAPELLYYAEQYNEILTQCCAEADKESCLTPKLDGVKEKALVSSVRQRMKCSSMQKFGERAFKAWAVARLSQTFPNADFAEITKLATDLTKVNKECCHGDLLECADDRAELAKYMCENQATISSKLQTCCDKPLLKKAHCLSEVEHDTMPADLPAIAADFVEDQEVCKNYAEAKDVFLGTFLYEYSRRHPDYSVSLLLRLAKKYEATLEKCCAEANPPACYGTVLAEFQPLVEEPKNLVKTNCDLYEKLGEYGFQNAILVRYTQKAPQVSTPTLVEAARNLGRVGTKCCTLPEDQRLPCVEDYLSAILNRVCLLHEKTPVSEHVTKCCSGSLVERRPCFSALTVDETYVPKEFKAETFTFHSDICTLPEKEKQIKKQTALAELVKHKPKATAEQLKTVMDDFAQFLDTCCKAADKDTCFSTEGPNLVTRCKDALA
Protocol: (§1) Mouse, rat, or rabbit albumin (Sigma, St. Louis, Mo.) were immobilized onto NUNC Maxisorp™ 96-well plates at 2 ug/ml overnight at 4° C. […] AB.Fab variants were serially diluted in binding buffer and added at 100 μl per well to the immobilized albumin for 30 minutes at 25° C. Unbound AB.Fab variant was removed by washing wells with 0.05% PBS/Tween® 20 and bound AB.Fab variant was detected with goat anti-human Fab′2-HRP for 1 hour at 25° C. Bound HRP was measured with a solution of tetramethylbenzidine (TMB)/H202. After 15 minutes, the reaction was quenched by the addition of 1M phosphoric acid.
(§2) Initially we explored binding of the AB.Fab variants to immobilized albumin using a Direct Binding ELISA.

[10] = target: T1, rat albumin; experiment: Direct Binding ELISA, AB.Fab variants on immobilized rat albumin; set-up: purchased Sigma; conditions: average and SD of at least 3 determinations
Protocol: as §1, §2

[11] = target: T2, rabbit albumin; experiment: Direct Binding ELISA, AB.Fab variants on immobilized rabbit albumin; set-up: purchased Sigma; conditions: average and SD of at least 3 determinations
Protocol: as §1, §2

[12] = target: T1, rat albumin; experiment: Solution Binding ELISA, AB.Fab variants with soluble rat albumin; set-up: purchased Sigma; conditions: Rat Albumin, soluble; Scatchard; average and SD of at least 3 determinations; read-out: Solution Binding ELISA (Kd)
[13] = Summarized Pk Data (Historical)

T1 sequence (P02770 25-608): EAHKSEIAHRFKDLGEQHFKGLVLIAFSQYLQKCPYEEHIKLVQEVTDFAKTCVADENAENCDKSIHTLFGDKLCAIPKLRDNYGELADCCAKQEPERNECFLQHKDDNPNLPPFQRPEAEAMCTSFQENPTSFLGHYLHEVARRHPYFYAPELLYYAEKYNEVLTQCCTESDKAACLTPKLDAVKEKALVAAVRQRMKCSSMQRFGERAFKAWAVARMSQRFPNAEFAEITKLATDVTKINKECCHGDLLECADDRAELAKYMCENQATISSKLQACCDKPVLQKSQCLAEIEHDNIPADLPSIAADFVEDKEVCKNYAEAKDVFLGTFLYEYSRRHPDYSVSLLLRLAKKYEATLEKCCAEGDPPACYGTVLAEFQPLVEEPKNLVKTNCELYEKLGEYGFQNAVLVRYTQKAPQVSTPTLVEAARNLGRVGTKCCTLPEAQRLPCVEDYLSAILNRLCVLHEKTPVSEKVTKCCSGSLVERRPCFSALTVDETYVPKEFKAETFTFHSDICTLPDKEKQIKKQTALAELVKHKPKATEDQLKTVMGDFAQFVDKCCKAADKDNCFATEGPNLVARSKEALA
T2 sequence (P49065 25-608): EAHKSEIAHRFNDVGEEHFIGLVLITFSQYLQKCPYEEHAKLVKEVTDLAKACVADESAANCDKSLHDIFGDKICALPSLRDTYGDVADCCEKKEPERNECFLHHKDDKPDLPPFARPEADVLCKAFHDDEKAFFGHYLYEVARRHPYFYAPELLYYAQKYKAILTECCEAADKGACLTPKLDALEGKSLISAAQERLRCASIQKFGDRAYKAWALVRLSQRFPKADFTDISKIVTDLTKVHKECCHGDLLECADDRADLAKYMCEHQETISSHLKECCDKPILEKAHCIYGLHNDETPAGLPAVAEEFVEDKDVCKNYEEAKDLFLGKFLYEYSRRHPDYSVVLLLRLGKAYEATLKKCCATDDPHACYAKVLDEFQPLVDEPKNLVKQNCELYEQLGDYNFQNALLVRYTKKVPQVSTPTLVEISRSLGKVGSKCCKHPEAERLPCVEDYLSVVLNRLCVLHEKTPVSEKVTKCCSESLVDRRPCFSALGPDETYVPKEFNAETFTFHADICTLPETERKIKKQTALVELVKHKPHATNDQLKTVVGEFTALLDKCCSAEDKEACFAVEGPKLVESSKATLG

## CC[C@H](C)[C@H](NC(=O)[C@H](CC(C)C)NC(=O)CNC(=O)[C@H](CCC(N)=O)NC(C)=O)C(=O)NCC(=O)N[C@@H](CC(=O)O)C(=O)N[C@H](C(=O)N[C@H]1CSSC[C@@H](C(=O)N[C@@H](CC(C)C)C(=O)N[C@@H](Cc2c[nH]c3ccccc23)C(=O)NCC(=O)N[C@@H](CC(=O)O)C(=O)N[C@@H](CO)C(=O)N[C@H](C(=O)N[C@@H](CCCCN)C(N)=O)C(C)C)NC(=O)CNC(=O)[C@H](Cc2c[nH]c3ccccc23)NC(=O)[C@H](CCCNC(=N)N)NC(=O)[C@@H]2CCCN2C(=O)[C@H](CC(C)C)NC1=O)[C@@H](C)CC [SA08]
[1]
  inhibition of RD phage binding to rat albumin: clearly blocked
[2]
  inhibition of BA phage binding to rabbit albumin: clearly blocked

## albumin
[3]
  half-life in mouse: 24 h
[4]
  half-life in rat: 45.6 h
[5]
  half-life in rabbit: 133 h
[6]
  half-life in man: 456 h

## D3H44-Fab: Fab fragment of D3H44, a humanized antibody that binds human tissue factor (TF)
[7]
  simultaneous binding of TF and albumin: did not bind albumin
[8]; [13]
  AUC Avg (Historical): 9800 ng·h/mL
  AUC/Dose Avg (Historical): 19.7 (hr * ug/mL)(/(mg/kg)
  CL Avg (Historical): 0.863 mL/min/kg
  K10-HL Avg (Historical): 0.760 hr
  V1 Avg (Historical): 55.9
  Vss Avg (Historical): 0.127 L/kg
[8]; rabbit, 0.5 mg/kg bolus i.v.
  AUC Avg: 5860 ng·h/mL
  AUC/Dose Avg: 14.8 (hr * ug/mL)/(mg/kg)
  Cmax Avg: 5000 ng/mL
  MRT Avg: 3.07 h
  V1* Avg (initial distribution volume): 0.0906 L/kg

## 4D5-H11: AB.Fab variant made by deletion in 4D5-H4 (Table 12) (DICLPRWGCL; disulfide 3-9 (inferred); also: part of Fab heavy chain)
[9]
  EC50: > 2000 nM
[10]
  EC50: > 1000 nM
[11]
  EC50: > 2000 nM
[12]
  Kd: 2430 ± 320 nM
